Data taken from US20220090089A1 (BROAD INSTITUTE, published 2022).

Target: T1, CD4 on primary human peripheral blood mononuclear cells (PBMCs) (human, UniProt P01730 26-458)
T1 construct: whole, on cells
Assay: flow cytometry of phage-stained human PBMCs
Protocol: Harvested cell lines or thawed PBMCs (see PHAGE-ATAC workflow for harvest and thawing protocol) were resuspended in FC buffer (see above) and incubated with respective phage nanobodies for 20 min on a rotator at 4° C. Cells were centrifuged and washed with cold FC buffer twice to remove unbound phages (centrifugation steps all were 350 g, 4 min, 4° C.). […] Cells were incubated for 10 min on ice, washed twice in FC buffer and resuspended in Sytox Blue (Thermo Scientific) containing FC buffer for live/dead discrimination according to manufacturer's instructions. […] Stained cells were analyzed using a CytoFLEX LX Flow Cytometer (Beckman Coulter) at the Broad Institute Flow Cytometry Facility. Flow cytometry data were analyzed using FlowJo software v.10.6.1.

B1: PAC-tagged anti-CD4 nanobody-displaying M13 phage (phagemid pDXinit-CD4Nb-PAC) (VHH)
VHH: EVQLVESGGGSVQPGGSLTLSCGTSGRTFNVMGWFRQAPGKEREFVAAVRWSSTGIYYTQYADSVKSRFTISRDNAKNTVYLEMNSLKPEDTAVYYCAADTYNSNPARWDGYDFWGQGTQVTVSS
notes: also called anti-CD4 pNb; anti-CD4 phage nanobody; not shown: M13 phage coat protein p3, from phagemid pDXinit; 12-amino acid PAC-tag
Q: Does B1 bind?
A: binds
